According to publication doi:10.1101/071720:

Molecular target: recombinant pscC protein of Pseudomonas aeruginosa (PA01), His-GST fusion (Pseudomonas aeruginosa PA01)
Experiment: SEC

Substance: recombinant pscC protein of Pseudomonas aeruginosa (PA01), His-GST fusion (domain or fragment)
- stoichiometry N: 2
